# T1: recombinant purified mouse CXCL13 (mouse, UniProt O55038 22-109, biotinylated in the ELISA of Example 1.1.A.1 (sites not given); unlabelled in Biacore)
# T1 construct: Bought recombinant protein (R&D Systems); also called murine CXCL13; mCXCL13
# T1 sequence: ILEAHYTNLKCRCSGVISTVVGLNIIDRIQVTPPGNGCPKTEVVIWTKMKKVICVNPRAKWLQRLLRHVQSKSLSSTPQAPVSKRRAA
# Legend:
# [1] = biological target: T1, recombinant purified mouse CXCL13; assay: SPR (Biacore), antibody captured by goat anti-mouse IgG Fc, mouse CXCL13 injected at 0.78-50 nM, 25 C
# Procedure: Binding of antibodies to recombinant purified mouse CXCL13 were determined by surface plasmon resonance-based measurements with a Biacore® 2000 and 3000 instruments (Biacore® AB, Uppsala, Sweden) using running HBS-EP (10 mM HEPES pH 7.4, 150 mM NaCl, 3 mM EDTA, and 0.015% surfactant P20) at 25° C. Experimental data from all kinetic rate determinations of the antibody-antigen reaction were analyzed using Biaevaluation software version 4.0.1.
# Mouse Anti Mouse CXCL13 antibodies to be captured as a ligand on the carboxymethyl dextran matrix were diluted in HBS-EP with 0.015% P20 at a concentration of 5-μg/mL. 50-100 μL aliquots were injected over the covalently coupled goat anti-mouse IgG Fc polyclonal antibody biosensor matrices at a flow rate of 25-50 μL/min. The net difference in the baseline signal and the signal after the completion of antibody injection was taken to represent the amount of bound Mouse Anti Mouse CXL13 antibody. Biosensor matrices were typically regenerated with subsequent 25 μL injections of 10 mM Glycine (pH 1.5) before the injection of the next sample. Glycine treatment disrupts the association of non-covalently bound proteins thus Anti CXCL13 antibody-mouse CXCL13 complex dissociates and washes off. The anti-mouse IgG antibody immobilized surfaces were completely regenerated. Aliquots of mouse CXCL13 antigen were injected at a flow rate of 25-50 μL/min over Anti CXCL13 purified monoclonal antibodies captured on the biosensor chips. The concentrations of mouse CXCL13 was ranging between 0.78-50 nM. HBS-EP with 0.015% P20 was flowed through each flow cell in between various cycles of antigens and also immediately before and after the end of kinetic analysis. The signal stabilized 120-180 seconds after the completion of the injection cycle. The net difference in signal between the baseline and the point corresponding to approximately 30 seconds after the completion of antigen injections was taken to represent the amount of antigen bound. The response was measured in resonance units (RU) representing the mass of bound CXCL13 antigen. CXCL13 antigen was also simultaneously injected over the goat anti mouse IgG Fc or goat IgG reference and reaction CM4 surface to record any nonspecific binding background.
# [2] = biological target: T1, recombinant purified mouse CXCL13; assay: ELISA, antibody captured by goat anti-mouse IgG Fc, biotinylated mouse CXCL13 detected with streptavidin-HRP
# Procedure: ELISA plates (Corning Costar, Acton, Mass.) were coated with 50 μL/well of 5 μg/ml goat anti-mouse IgG Fc specific (Pierce # 31170, Rockford, Ill.) in Phosphate Buffered Saline (PBS) overnight at 4 degrees Celsius. Plates were washed once with PBS containing 0.05% Tween-20. Plates were blocked by addition of 200 μL/well blocking solution diluted to 2% in PBS (BioRad #170-6404, Hercules, Calif.) for 1 hour at room temperature. Plates were washed once after blocking with PBS containing 0.05% Tween-20.
# Fifty microliters per well of mouse sera or hybridoma supernatants diluted in PBS containing 0.1% Bovine Serum Albumin (BSA) (Sigma, St. Louis, Mo.) was added to the ELISA plate prepared as described above and incubated for 1 hour at room temperature. Wells were washed three times with PBS containing 0.05% Tween-20. Fifty microliters of biotinylated recombinant purified mouse CXCL13 diluted to 100 ng/mL in PBS containing 0.1% BSA was added to each well and incubated for 1 hour at room temperature. Plates were washed 3 times with PBS containing 0.05% Tween-20. Streptavidin HRP (Pierce # 21126, Rockland, Ill.) was diluted 1:20000 in PBS containing 0.1% BSA; 50 μL/well was added and the plates incubated for 1 hour at room temperature. Plates were washed 3 times with PBS containing 0.05% Tween-20. Fifty microliters of TMB solution (Sigma # T0440, St. Louis, Mo.) was added to each well and incubated for 10 minutes at room temperature. The reaction was stopped by addition of 1N sulphuric acid. Plates were read spectrophotmetrically at a wavelength of 450 nm.
# [3] = biological target: T1, recombinant purified mouse CXCL13; assay: cell-based or functional assay
Binder,kon [1] [M⁻¹ s⁻¹],EC50 [2] [nM],Average Kb (nM) Chemotaxis Assay [3] [nM],Kd [1] [nM],koff [1] [s⁻¹]
"XW25-5D11-4F3-3D11 (antibody, V domains shown, Mouse anti-mouse CXCL13 monoclonal antibody purified from hybridoma) VH: EVQVQQSGAELVRPGSSVKMSCKTSGYTFTNYGIIWVKQRPGQGLEWIGYIYIGKGYTEYNEKFKGKATLTSDTSSSTVYMQLSSLTSEDSAIYFCARGAHYYGNAMDYWDQGTSVTVSS VL: DIQMTQTTSSLSASLGDRVTISCRSSQDISNFLNWYQQRPDGTVKLLIYYTSRLHSGVPSRFSGSGSGTDYSLTISNLEQEDIATYFCQQGDTLPWTFGGGTKLEIKR",1e+06,0.03,18.9,–,–
"XW25-2C4-4H8 (antibody, V domains shown, Mouse anti-mouse CXCL13 monoclonal antibody purified from hybridoma) VH: QVQLQQPGTELVKPGASVKLSCKASGYNFATYWMHWVKQRPGQGLEWIGNINPSDGGTNFNEKFNNKATLTVDKSSSTAYMQLSSLTSEDSAVYYCAKWGGHYVLYWYFDVWGTGTTVTVSS VL: DIVLTQSPATLSVTPGDSVSLSCRASQSISSNLHWYQQKSHESPRLLITYASQSISGIPSRFSGSGSGTDFTLSINSVESEDVGVYFCQQSDSWPLTFGAGTKLELKR",2.7e+06,0.02,23,0.013,3.6e-05
"XW25-6A2-2F10 (antibody, V domains shown, Mouse anti-mouse CXCL13 monoclonal antibody purified from hybridoma) VH: QVQLQQPGTELVKPGASVKLSCKASGYNFATYWVHWVKQRPGQGLEWIGNINPSDGGTSYNEKFSKKATLTVDKSSSTAYMELSSLTSEDSAVYYCAKWGGHYVLYWSFDVWGTGTTVTVSS VL: DIVLTQSPATLSVTPGDSVSLSCRASQSISNNLHWYQQRSHESPRLIITHVSQSISGIPSRFSGSGSGTDFIFSINSVESEDFGVYFCQQSNSWPLTFGAGTKLELKR",1.6e+06,0.02,8.12,0.002,2.7e-06
"XW25-3B5-3F4 (antibody, V domains shown, Mouse anti-mouse CXCL13 monoclonal antibody from hybridoma) VH: QVQLQQPGTELVKPGTSVKLSCKASGYTFTSYWMHWVKQRPGQGLEWIGNINPSDGGIKYNEKFKSKATLTVDKSSSTAYMELSSLTSEDSAVYYCAKWGGHYVLYWYFDVWGTGTTVTVSS VL: DIVLTQSPATLSVTPGDSVSLSCRASQSISNNLHWYQQKSHESPRLLINYASQSISGIPSRFSGSGSGTDFTLSINSVETEDFGMYFCQQSNSWPLTFGAGTKLELKR",–,0.04,–,–,–
"XW25-4F2-5D2 (antibody, V domains shown, Mouse anti-mouse CXCL13 monoclonal antibody from hybridoma) VH: QVQLQQPGTELVKPGASVKLSCKASGYNFPTYWMHWVKQRPGQGLEWIGNINPSDGGTNFNEKFNNKATLTVDKSSSTAYMQLSSLTSEDSAVYYCAKWGGHYVLYWYFDVWGTGTTVTVSS VL: DIVLTQSPATLSVTPGDSVSLSCRASQSISNNLHWYQQKSHESPRLLITYASQSISGIPSRFSGSGSGTDFTLSINSVESEDVGVYFCQQSDSWPLTFGAGTKLELKR",–,0.02,16,–,–

# The remaining lines, values ahead:
kon [1] [M⁻¹ s⁻¹],EC50 [2] [nM],Average Kb (nM) Chemotaxis Assay [3] [nM],Kd [1] [nM],koff [1] [s⁻¹],Binder
–,0.01,–,–,–,"XW25-9C10-4B11 (antibody, V domains shown, Mouse anti-mouse CXCL13 monoclonal antibody from hybridoma) VH: QVQLQQPGTELVKPGASVKLSCKASGYNFATYWMHWVKQRPGQGLEWIGNINPSDGGTNFNEKFNSKATLTVDKSSSTAYMQLSSLTSEDSAVYYCAKWGGHYVLYWYFDVWGTGTTVTVSS VL: DIVLTQSPATLSVTPGDSVSLSCRASQSISSNLHWYQQKSHESPRLLITYASQSISGIPSRFSGSGSGTDFTLSINSVESEDVGVYFCQQSDSWPLTFGAGTKLELKR"
–,0.02,–,–,–,"XW25-7C7-5E5 (antibody, V domains shown, Mouse anti-mouse CXCL13 monoclonal antibody from hybridoma) VH: QVQLQQPGTELVKPGASVKLSCKASGYNFATYWMHWVKQRPGQGLEWIGNINPSDGGTNFNEKFNNKATLTVDKSSSTAYMHLSSLTSEDSAVYYCAKWGGHYVLYWYFDVWGTGTTVTVSS VL: DIVLTQSPATLSVTPGDSVSLSCRASQNINNNLHWYQQKSHESPRLLITYTSQSISGIPSRFSGSGSGTDFTLSINSVESEDVGVYFCQQSDSWPLTFGAGTKLELKR"
–,0.03,–,–,–,"XW25-8H6-4F9 (antibody, V domains shown, Mouse anti-mouse CXCL13 monoclonal antibody from hybridoma) VH: QVQLQQPGTELVKPGASVKLSCKASGYNFATYWMHWVKQRPGQGLEWIGNINPSDGGTNYNEKFNNKATLTVDKSSSTAYMQLSSLTSEDSAVYYCAKWGGHYVLYWYFDVWGTGTTVTVSS VL: DIVLTQSPATLSVTPGDSVSLSCRASQSINNNLHWYQQESHESPRLLITYASQSISGIPSRFSGSGSGTDFTLSINSVESEDFGVYFCQQSNSWPLTFGAGTKLELKR"

# Source: patent US20080227704A1 (published 2008)
